In patent US20260216242A1 (ALMAC DISCOVERY, published 2026):
One block for each binder: values may come before it.

Tests used:
[1] = biological target: T1, human ALPI (intestinal alkaline phosphatase) expressed on the surface of CHO cells (human, UniProt P09923 20-503); assay: flow cytometry on CHO-ALPI cells
T1 construct: whole, on cells; The cell-surface form has none; also called CHO-ALPI; hALPI
T1 sequence (looked up): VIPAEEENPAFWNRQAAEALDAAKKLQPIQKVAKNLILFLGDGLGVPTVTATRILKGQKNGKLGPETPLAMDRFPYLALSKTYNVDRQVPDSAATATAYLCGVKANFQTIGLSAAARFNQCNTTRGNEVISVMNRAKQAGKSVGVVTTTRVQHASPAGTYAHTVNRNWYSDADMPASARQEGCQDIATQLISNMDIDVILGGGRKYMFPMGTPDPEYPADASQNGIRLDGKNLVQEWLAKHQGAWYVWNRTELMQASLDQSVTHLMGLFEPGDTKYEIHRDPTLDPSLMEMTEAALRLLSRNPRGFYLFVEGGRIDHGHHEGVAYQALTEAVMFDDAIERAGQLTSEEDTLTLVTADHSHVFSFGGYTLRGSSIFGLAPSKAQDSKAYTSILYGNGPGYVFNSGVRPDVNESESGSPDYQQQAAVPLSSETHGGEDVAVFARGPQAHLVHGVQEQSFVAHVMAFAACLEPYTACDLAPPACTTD

[2] = biological target: T2, human ALPPL2 (alkaline phosphatase, germ cell type) expressed on the surface of CHO cells (human, UniProt P10696 20-503); assay: flow cytometry on CHO-ALPPL2 cells, apparent KD (KDapp)
T2 construct: whole, on cells; The cell-surface form has none; also called CHO-ALPPL2; hALPPL2
Description: (§1) Biparatopic VHH-hFc drug conjugates were assessed for human ALPP, ALPPL2, ALPI and ALPL cell-surface binding by flow cytometry. Binders were screened on CHO cells stably expressing human ALPP, ALPPL2, ALPI or ALPL.
(§2) Cell surface binding of test agents to hALPP isoforms was characterized in four CHO-ALPP isoform transfectant cell lines (CHO-ALPP, CHO-ALPPL2, CHO-ALPI and CHO-ALPL) and the resulting KDapp values determined. Adherent cells were detached from tissue culture flasks by incubating with 0.1% EDTA/PBS solution at 37° C. for […] or until cells detached easily. Cells were re-suspended in ice-cold PBS/2% FCS in 15 ml tubes and centrifuged at 1700 rpm for 5 mins at 4° C. Supernatant was removed and the cell pellet re-suspended in PBS/2% FCS. […] Cells were incubated with 100 μl of test agents at a range of concentrations, plus controls for 1 hr on ice. The sample plate was centrifuged at 1700 rpm for 5 mins at 4° C. The supernatant was removed, and a wash performed by re-suspending the cell pellets in 0.25 mL of ice-cold PBS/2% FCS using a multichannel pipette. Samples were again centrifuged at 1700 rpm for 5 min at 4° C. Supernatant was removed and two further washes performed as described. After the final wash and centrifugation step, excess liquid was removed by blotting the plate on tissue paper. Binding of VHH-hFc agents was determined by adding 100 μl of Fitc-anti-human Ab (ThermoFisher) and incubating for 30 mins on ice in the dark. Wash steps were performed as described previously. All cell pellets were finally re-suspended in 0.28 ml of ice-cold PBS/2% FCS and left on ice in the dark prior to analysis on a Merck-Millipore Guava EasyCyte HT or Thermo Fisher Attune N×T flow cytometer.

[3] = biological target: T3, human ALPP (alkaline phosphatase, placental type) expressed on the surface of CHO cells (human, UniProt P05187 23-506); assay: flow cytometry on CHO-ALPP cells, apparent KD (KDapp)
T3 construct: also called CHO-ALPP; hALPP
Description: as §1, §2

[4] = biological target: T4, human ALPL (tissue non-specific alkaline phosphatase) expressed on the surface of CHO cells (human, UniProt P05186 18-501); assay: flow cytometry, CHO-ALPL cells
T4 construct: whole, on cells; The cell-surface form has none; also called CHO-ALPL; hALPL
T4 sequence (looked up): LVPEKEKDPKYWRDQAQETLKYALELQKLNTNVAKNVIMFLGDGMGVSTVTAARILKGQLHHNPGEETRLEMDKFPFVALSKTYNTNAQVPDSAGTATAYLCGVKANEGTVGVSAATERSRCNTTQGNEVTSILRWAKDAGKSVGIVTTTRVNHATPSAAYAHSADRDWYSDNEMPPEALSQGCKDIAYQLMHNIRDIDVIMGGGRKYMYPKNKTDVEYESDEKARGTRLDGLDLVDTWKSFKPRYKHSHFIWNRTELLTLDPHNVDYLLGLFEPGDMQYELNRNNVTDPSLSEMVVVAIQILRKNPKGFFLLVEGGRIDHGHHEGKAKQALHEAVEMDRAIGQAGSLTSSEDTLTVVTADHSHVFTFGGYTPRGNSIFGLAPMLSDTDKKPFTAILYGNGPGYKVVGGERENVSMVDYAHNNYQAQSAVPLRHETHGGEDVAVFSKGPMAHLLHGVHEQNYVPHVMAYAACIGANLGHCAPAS

[5] = biological target: T3, human ALPP (alkaline phosphatase, …); assay: cell-based or functional assay
[6] = biological target: T1, human ALPI (intestinal alkaline …); assay: cell-based or functional assay
[7] = biological target: T4, human ALPL (tissue non-specific …); assay: cell-based or functional assay
[8] = biological target: T1, human ALPI (intestinal alkaline …); assay: flow cytometry, CHO-ALPI cells
[9] = biological target: T2, human ALPPL2 (alkaline phosphatase, …); assay: cell-based or functional assay

T3 sequence (P05187 23-506 limits assumed): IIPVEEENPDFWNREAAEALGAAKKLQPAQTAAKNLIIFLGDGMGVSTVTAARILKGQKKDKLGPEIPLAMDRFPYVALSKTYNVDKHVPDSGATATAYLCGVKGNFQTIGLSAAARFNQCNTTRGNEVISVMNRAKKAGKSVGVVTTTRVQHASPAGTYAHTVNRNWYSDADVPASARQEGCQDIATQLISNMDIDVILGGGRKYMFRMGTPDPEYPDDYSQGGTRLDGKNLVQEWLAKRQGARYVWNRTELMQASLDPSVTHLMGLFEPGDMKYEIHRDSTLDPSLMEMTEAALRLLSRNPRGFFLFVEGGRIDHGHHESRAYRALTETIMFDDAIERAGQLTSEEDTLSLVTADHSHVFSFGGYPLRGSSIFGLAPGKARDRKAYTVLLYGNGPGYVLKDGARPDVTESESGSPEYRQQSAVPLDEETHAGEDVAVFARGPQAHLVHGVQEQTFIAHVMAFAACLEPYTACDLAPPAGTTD
T2 sequence (P10696 20-503): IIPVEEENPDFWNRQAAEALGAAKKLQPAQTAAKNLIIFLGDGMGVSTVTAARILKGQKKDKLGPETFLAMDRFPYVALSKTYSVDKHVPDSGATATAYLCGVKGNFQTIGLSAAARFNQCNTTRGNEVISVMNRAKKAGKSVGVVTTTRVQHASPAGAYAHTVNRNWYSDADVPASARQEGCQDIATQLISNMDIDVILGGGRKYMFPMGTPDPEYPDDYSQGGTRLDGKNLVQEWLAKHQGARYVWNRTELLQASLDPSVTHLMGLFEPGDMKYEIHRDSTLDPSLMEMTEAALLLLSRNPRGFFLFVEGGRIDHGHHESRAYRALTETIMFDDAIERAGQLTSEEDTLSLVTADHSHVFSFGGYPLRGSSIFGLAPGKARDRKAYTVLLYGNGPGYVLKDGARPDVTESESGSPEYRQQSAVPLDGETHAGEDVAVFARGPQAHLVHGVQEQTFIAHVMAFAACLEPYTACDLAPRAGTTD

- MFI on CHO-ALPI cells at 350 nM as percent of MFI on CHO-ALPP cells (KDapp not-determinable) [1]: ≤ 1%
- Kd [2]: 4.4 nM
- Kd [3]: 7.6 nM
B1: D10 A06-hFc (S239/442C T366Y/Y407T), [G4S]3 linker, MC-vc-PAB-MMAE conjugate, #633 (Fc fusion, DAR 4)
chain 1: QVQLVESGGGLVQPGGSLRLSCAASGSIFSVNTMGWYRQAPGKQRDLVAVATSGGTIHYADSVKGRFTISRDNAKNTVYLQMNSLKPEDTAVYYCNLVVPYGMIAGDHDYWGQGTKVTVSSGGGGSGGGGSGGGGSEPKSSDKTHTCPPCPAPELLGGPCVFLFPPKPKDTLMISRTPEVTCVVVDVSHEDPEVKFNWYVDGVEVHNAKTKPREEQYNSTYRVVSVLTVLHQDWLNGKEYKCKVSNKALPAPIEKTISKAKGQPREPQVYTLPPSRDELTKNQVSLYCLVKGFYPSDIAVEWESNGQPENNYKTTPPVLDSDGSFFLYSKLTVDKSRWQQGNVFSCSVMHEALHNHYTQKSLCLSPGK
chain 2: QVHLVESGGGLVQAGGSLRLSCAASGRTFLSMGWFRQAPGKEREFVAAISWTGGSTGYADSVKGRFTISRESDKETMYLQMNSLKPEDTAVYYCAARGDVYYGGDDATRYKYWGQGTQVTVSSGGGGSGGGGSGGGGSEPKSSDKTHTCPPCPAPELLGGPCVFLFPPKPKDTLMISRTPEVTCVVVDVSHEDPEVKFNWYVDGVEVHNAKTKPREEQYNSTYRVVSVLTVLHQDWLNGKEYKCKVSNKALPAPIEKTISKAKGQPREPQVYTLPPSRDELTKNQVSLTCLVKGFYPSDIAVEWESNGQPENNYKTTPPVLDSDGSFFLTSKLTVDKSRWQQGNVFSCSVMHEALHNHYTQKSLCLSPGK
modifications: MC-vc-PAB-MMAE on Cys of S239C and S442C (EU numbering)
notes: Biparatopic knob-into-hole VHH-hFc heterodimer, DAR 4; The assignment of T366Y to the first named VHH and Y407T to the second follows the order of the name; No paragraph spells out this pair; also called D10-A06 hFc-vcPAB-MMAE; D10-A06-hFc-vc-MMAE
- binding result [4]: no binding (tested: 350 nM (highest concentration))
- IC50 at 96 h, cell-killing of CHO-ALPP cells [5]: 10.1 nM
- IC50 at 96 h, cell-killing of CHO-ALPI cells [6]: > 1000 nM
- IC50 at 96 h, cell-killing of CHO-ALPL cells [7]: > 1000 nM

- Kd [2]: 5.9 nM
- Kd [3]: 8.3 nM
B2: D10 E06-hFc (S239/442C T366Y/Y407T), [G4S]3 linker, MC-vc-PAB-MMAE conjugate, #634 (Fc fusion, DAR 4)
chain 1: B1 chain 1
chain 2: QVHLVESGGGLVQAGGSLRLSCAASRRSFSEYAMGWFRQAPGKEREFVAAIGWSGVIEYADSVKGRFTISRDNAKDTVYLQMNSLKPEDTAVYYCAAGLGIRVVSQTPAYWGQGTQVTVSSGGGGSGGGGSGGGGSEPKSSDKTHTCPPCPAPELLGGPCVFLFPPKPKDTLMISRTPEVTCVVVDVSHEDPEVKFNWYVDGVEVHNAKTKPREEQYNSTYRVVSVLTVLHQDWLNGKEYKCKVSNKALPAPIEKTISKAKGQPREPQVYTLPPSRDELTKNQVSLTCLVKGFYPSDIAVEWESNGQPENNYKTTPPVLDSDGSFFLTSKLTVDKSRWQQGNVFSCSVMHEALHNHYTQKSLCLSPGK
modifications: MC-vc-PAB-MMAE on Cys of S239C and S442C (EU numbering)
notes: Biparatopic knob-into-hole VHH-hFc heterodimer, DAR 4; also called D10-E06 hFc-vcPAB-MMAE; D10-E06 hFc-vc-MMAE
- binding result [8]: no binding (tested: 350 nM (highest concentration))
- binding result [4]: no binding (tested: 350 nM (highest concentration))
- IC50 at 96 h, cell-killing of CHO-ALPP cells [5]: 9.2 nM
- IC50 at 96 h, cell-killing of CHO-ALPI cells [6]: > 1000 nM
- IC50 at 96 h, cell-killing of CHO-ALPPL2 cells [9]: 9.1 nM
- IC50 at 96 h, cell-killing of CHO-ALPL cells [7]: > 1000 nM

- Kd [2]: 5.5 nM
- Kd [3]: 9.4 nM
B3: D10 E06-hFc (S239/442C T366Y/Y407T), [G4S]1 linker, MC-vc-PAB-MMAE conjugate, #677 (Fc fusion, DAR 4)
chain 1: QVQLVESGGGLVQPGGSLRLSCAASGSIFSVNTMGWYRQAPGKQRDLVAVATSGGTIHYADSVKGRFTISRDNAKNTVYLQMNSLKPEDTAVYYCNLVVPYGMIAGDHDYWGQGTKVTVSSGGGGSEPKSSDKTHTCPPCPAPELLGGPCVFLFPPKPKDTLMISRTPEVTCVVVDVSHEDPEVKFNWYVDGVEVHNAKTKPREEQYNSTYRVVSVLTVLHQDWLNGKEYKCKVSNKALPAPIEKTISKAKGQPREPQVYTLPPSRDELTKNQVSLYCLVKGFYPSDIAVEWESNGQPENNYKTTPPVLDSDGSFFLYSKLTVDKSRWQQGNVFSCSVMHEALHNHYTQKSLCLSPGK
chain 2: QVHLVESGGGLVQAGGSLRLSCAASRRSFSEYAMGWFRQAPGKEREFVAAIGWSGVIEYADSVKGRFTISRDNAKDTVYLQMNSLKPEDTAVYYCAAGLGIRVVSQTPAYWGQGTQVTVSSGGGGSEPKSSDKTHTCPPCPAPELLGGPCVFLFPPKPKDTLMISRTPEVTCVVVDVSHEDPEVKFNWYVDGVEVHNAKTKPREEQYNSTYRVVSVLTVLHQDWLNGKEYKCKVSNKALPAPIEKTISKAKGQPREPQVYTLPPSRDELTKNQVSLTCLVKGFYPSDIAVEWESNGQPENNYKTTPPVLDSDGSFFLTSKLTVDKSRWQQGNVFSCSVMHEALHNHYTQKSLCLSPGK
modifications: MC-vc-PAB-MMAE on Cys of S239C and S442C (EU numbering)
notes: Biparatopic knob-into-hole VHH-hFc heterodimer, DAR 4; also called D10-E06-hFc-vcPAB-MMAE; D10-E06 hFc-vc-MMAE
- binding result [8]: no binding (tested: 350 nM (highest concentration))
- binding result [4]: no binding (tested: 350 nM (highest concentration))
- IC50 at 96 h, cell-killing of CHO-ALPP cells [5]: 3.3 nM
- IC50 at 96 h, cell-killing of CHO-ALPI cells [6]: > 1000 nM
- IC50 at 96 h, cell-killing of CHO-ALPPL2 cells [9]: 21.1 nM
- IC50 at 96 h, cell-killing of CHO-ALPL cells [7]: > 1000 nM
